B1: antibody 537 (antibody, V domains shown)
VH: QVQLQQWGAGLLKPSETLSLTCAVYGGSFSGYYWSWIRQPPGKGLEWIGEINHSGSTNYNPSLKSRVTISVDTSKNQFSLKLSSVTAADTAVYYCARGLYYDMGGGFDYWGQGTLVTVSS
VL: not shown
B2: antibody 514 (antibody, V domains shown)
VH: EVQLVQSGAEVKKPGATVKISCKVSGYTFTDYYMHWVQQAPGKGLEWMGLVDPEDGETIYAEKFQGRVTITADTSTDTAYMELSSLRSEDTAVYYCATDCKYDILTGHYSAGYYYYGMDVWGQGTTVTVSS
VL: DIQMTQSPSSLSASVGDRVTITCRASQGISNYLAWFQQKPGKAPKSLIYAASSLQSGVPSKFSGSGSGTDFTLTISSLQPEDFATYYCQQYNSYPFTFGGGTKVEIK
B3: antibody 533 (antibody, V domains shown)
VH: GVQLVESGGVVVQPGGSLRLSCAASGFSFDDYTMHWVRQAPGKGLEWVSLVSWDGGTTYYTDSVKGRFTISRDNSKNSLYLQMNSLRTEDTALYFCAKDSGRIVPAATFDYWGQGTLVTVSS
VL: DIQMTQSSSSLSASVGDRVTITCRASQDISNYLAWFQQKPGKAPKSLIYAASSLQSGVPSKFSGSGSGTDFTLTISSLQPEDFATYYCQQYYTYPLTFGGGTKVEIK
B4: antibody 536 (antibody, V domains shown)
VH: QVQLVESGGGVVQPGRSLRLSCAASGFTFSSYVMHWVRQAPGKGLEWVALISYDGSNKYYADSVKGRFTISRDNSKNTLYLQMNSLRAEDTAVYYCARGGHIRVGRYFDWLISYFDYWGQGTLVTVSS
VL: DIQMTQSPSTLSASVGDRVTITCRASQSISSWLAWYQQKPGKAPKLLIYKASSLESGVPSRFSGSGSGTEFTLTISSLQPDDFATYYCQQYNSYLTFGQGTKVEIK
B5: antibody 527 (antibody, V domains shown)
VH: QLQLQESGPGLVKPSETLSLTCTVSGGSISSSSYYWGWIRQPPGKGLEWIGSIYYSGSTYYNPSLKSRVTISVDTSKNQFSLKLSSVTAADTAMYYCASHVVVIASSYWCFDLWGRGTLVTVSS
VL: QSALTQPASVSGSPGQSITISCTGTSSDVGGYNYVSWYQQHPGKAPKLMIYDVSNRPSGVSNRFSGSKSGNTASLTISGLQAEDEADYYCSSYTSISTWVFGGGTKLTVL
B6: antibody 504 (antibody, V domains shown)
VH: QVQLVESGGGVVQPGRSLRLSCAASGFTFSSYGMHWVRQAPGKGLEWVAVISYDGSNKYYADSVKGRFTISRDNSKNTLYLQMNSLRAEDTAVYYCAKGGGGGYCSGGSCYSHYFDYWGQGTLVTVSS
VL: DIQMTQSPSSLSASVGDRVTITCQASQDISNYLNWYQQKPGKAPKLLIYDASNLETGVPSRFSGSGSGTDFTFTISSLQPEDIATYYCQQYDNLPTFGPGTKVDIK
B7: antibody 523 (antibody, V domains shown)
VH: EVQLVESGGVSVQPGGSLRLSCAASGFSFNTYDMHWVRQGTGKGLEWVSGIGTAGDTYYSDSVKGRCTISRDNAKNSLHLLVKSVRAADTAVYYCARGVGGIIDYWGQGTLVTVSS
VL: NFVLSQPHSVSESPGKTVTISCTGNSGSIATKYVQWFQQRPGSAPTTVIYEDNQRPSGVPDRFSGSSDSSSNSASLTISGLKTEDEAHYYCQSYHNRRWVFGGGTKLTVL
B8: antibody 497 (antibody, V domains shown)
VH: QVQLQESGPGLVKPSQTLSLTCTVSGGSINSFGYYWSWIRQHPGKGLEWIGYIYYSGSTDYNPSLNSRVTISLDTSKNQFLLKLTSVTAADTAVYYCAKLTDYYDSSGYSFDYWGQGTLVTVSS
VL: DIQMTQSPSSVSASVGDRVTITCRASQDISRWLAWYQQKPGKAPKLLIYAASSLQSGVPSRFSGRGSGTELTLTISSLQPEDFATYFCQQAYSFPFTFGGGTKVEIK
B9: antibody 522 (antibody, V domains shown)
VH: EVQLVESGGGLVQPGGSLRLSCAASGFNFSSYSMNWVRQAPGKGLEWVSYISSSSSTIYYADSVKGRFTISRDNAKNSLYLQMNSLRDEDTAVYYCARGPEWDIVVVQAENWFDPWGQGTLVTVSS
VL: SYELTQPPSVSVSPGQTARITCSGDALPKQYVYWYQQKPGQAPVLVIYKDSERPSGIPERFSGSSSGTTVTLTISGVQAEDEADYYCQSADSSGTYRGVFGGGTKLTVL
B10: antibody 510 (antibody, V domains shown)
VH: QVQLQESGPGLVKPSQTLSLTCTVSGGSISSGSYYWSWIRQPAGKGLEWIGRIYTSGSTNYNPSLKSRVTISVDTSKNQFSLKLSSVTAADTAVYYCAREGQWLYRFDYWGQGTLVTVSS
VL: QSALTQPASVSGSPGQSITISCTGTSSDVGNYDLVSWYQQHPGKAPKLVIYGVTKRPSGVSNRFSGSKSGNTASLTISGLQAEDEADYYCCSYATGDTSVFGTGTKVTVL
B11: antibody 516 (antibody, V domains shown)
VH: QVELQQWGAGLLKPSETLSLTCAVYGGSFSGYYWSWIRQPPGKGLEWIGEINHSGSTNYNPSLKSRVTISIDTSKNQFSLKLSSVTAADTAVYYCARGTTVTTFFAPHWYFDLWGRGTLVTVSS
VL: QSALTQPASVSGSPGQSITISCTGTSSDVGGYNYVSWYQQHPGKAPKLMIYDVSNRPSGVSNRFSGSKSGNTASLTISGLQAEDEADYYCSSYTSSSTPYVFGTGTKVTVL
B12: antibody 543 (antibody, V domains shown)
VH: EVQLVESGGGLVQPGRSLRLSCAASGFTFHDYAMHWVRQAPGKGLEWVSGISWNSGSIGYADSVKGRFTISRDNAKNSLYLQMNSLRAEDTALYYCAKDTFGSSSWYRGDSYYYYGMDVWGQGTTVTVSS
VL: QSALTQPASVSGSPGQSITISCTGTSSDVGGYNYVSWYQQHPGKAPKLMIYEVSNRPSGVSNRFSGSKSGNTASLTISGLQAEDEADYYCSSYTSSSTQRYVVFGGGTKLTVL
B13: antibody 509 (antibody, V domains shown)
VH: QVQLVESGGGVVQPGRSLRLSCAASGFNLSSYAMHWVRQASGKGLEWVSLISYDGSIKYYTDSVKGRFTVSGDNSKNTLFLQMNSLRADDSALYYCVRGGVSGPNSFDLWGQGTTVTVSS
VL: DVVMTQSPLSLPVTLGQPASISCRSSQSLVYSDGNTYVNWFQQRPGQSPRRLIYKVSIRASGVPDRFSGSGSGTDFALKISRVEAEDVGVYYCMQGTHWPVTFGQGTKVEIK
B14: antibody 517 (antibody, V domains shown)
VH: QVQLVESGGGVVQPGRSLRLSCAASGFNLSNYAMHWVRQASGKGLEWVSLISYDGSIKYYTDSVKGRFTVSGDNSKNTLFLQMNSLRADDSALYYCVRGGVSGPNSFDMWGQGTTVTVSS
VL: DVVMTQSPLSLPVTLGQPASISCRSSQSLVYSDGNTYVNWFQQRPGQSPRRLIYQVSIRASGVPDRFSGSGSGTDFALKISRVEAEDVGVYYCMQGTHWPVTFGQGTKVEIK
B15: antibody 546 (antibody, V domains shown)
VH: QVQLVESGGGVVQPGRSLRLSCAASGFTFSSYGMHWVRQAPGKGLEWVAVIWYDGSNKYYADSVKGRFTISRDNSKNTLYLQMNSLRAEDTAVYYCARNCGGDCVAGDGFDYWGQGTLVTVSS
VL: DIQMTQSPSSLSASVGDRVTITCRASQSISSYLNWYQQKPGKAPNLLIYAASSLQSGVPSRFSGSGSGTDFTLTISSLQPEDFATYYCQQSYSALTWTFGQGTKVEIK
B16: antibody 541 (antibody, V domains shown)
VH: QVQLVQSGAEVKKPGASVKVSCKASGYTFTSYYVHWVRQAPGQSLEWMGVISPSTGSTTYAQNFQGRVTMTRDTSTTTVYMELSSLRSEDTAVYYCARDDYYDSTRYFDLWGRGTLVTVSS
VL: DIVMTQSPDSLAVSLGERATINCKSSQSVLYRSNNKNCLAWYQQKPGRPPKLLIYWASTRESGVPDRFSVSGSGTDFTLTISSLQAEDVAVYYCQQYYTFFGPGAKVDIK

What follows are binders tested against SARS-CoV-2 full length spike protein, wild type, expressed on the surface of CHO cells (SARS-CoV-2, UniProt P0DTC2 14-1273).

Row | Binder | median fluorescence fold over isotype control
1 | B1 | 4.42 fold over isotype
2 | B2 | 1.04 fold over isotype
3 | B3 | 4.31 fold over isotype
4 | B4 | 2.36 fold over isotype
5 | B5 | 10.4 fold over isotype
6 | B6 | 2.78 fold over isotype
7 | B7 | 5.18 fold over isotype
8 | B8 | 28.3 fold over isotype
9 | B9 | 9.18 fold over isotype
10 | B10 | 1.18 fold over isotype
11 | B11 | 3.31 fold over isotype
12 | B12 | 13.3 fold over isotype
13 | B13 | 10.2 fold over isotype
14 | B14 | 10.3 fold over isotype
15 | B15 | 19.3 fold over isotype
16 | B16 | 1.1 fold over isotype

Reference: US20210292393A1 (published 2021)
